Test results taken from PMC4351158 (Structure (London, England : 1993), 2015).
Changes are numbered by the printed parent chain. Where no end group is shown, it is not given here. fluorescein = fluorescein, a fluorescent label on the peptide N-terminus

Columns and labels:
Test in all cases: fluorescence polarisation
DegS Q187A = target: T1, DegS Q187A (E. coli, UniProt P0AEE3 27-355, Q187A)
T1 sequence (looked up): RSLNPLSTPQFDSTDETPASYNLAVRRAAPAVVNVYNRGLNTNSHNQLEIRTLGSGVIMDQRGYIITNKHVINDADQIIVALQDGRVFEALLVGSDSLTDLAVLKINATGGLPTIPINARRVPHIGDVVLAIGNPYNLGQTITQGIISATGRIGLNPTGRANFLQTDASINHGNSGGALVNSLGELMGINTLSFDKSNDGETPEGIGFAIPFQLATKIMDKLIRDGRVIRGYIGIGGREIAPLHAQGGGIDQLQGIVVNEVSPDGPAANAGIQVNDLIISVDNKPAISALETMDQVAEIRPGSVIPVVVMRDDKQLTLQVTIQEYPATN

DegS I179A = target: T2, DegS I179A (E. coli, UniProt P0AEE3 27-355, I179A)
T2 sequence (looked up): T1 sequence (looked up) with I153A, A161Q

DegS E230A = target: T3, DegS E230A (E. coli, UniProt P0AEE3 27-355, E230A)
T3 sequence (looked up): T1 sequence (looked up) with A161Q, E204A

DegS D221A = target: T4, DegS D221A (E. coli, UniProt P0AEE3 27-355, D221A)
T4 sequence (looked up): T1 sequence (looked up) with A161Q, D195A

DegS N197A = target: T5, DegS N197A (E. coli, UniProt P0AEE3 27-355, N197A)
T5 sequence (looked up): T1 sequence (looked up) with A161Q, N171A

DegS H198P/F234A = target: T6, DegS H198P/F234A (E. coli, UniProt P0AEE3 27-355, H198P | F234A)
T6 sequence (looked up): T1 sequence (looked up) with A161Q, H172P, F208A

Kd (DegS Q187A): 2300 ± 100 nM
Kd (DegS I179A): 2300 ± 400 nM
Kd (DegS E230A): 5700 ± 1300 nM
Kd (DegS D221A): 3200 ± 200 nM
Kd (DegS N197A): 1400 ± 100 nM
Kd (DegS H198P/F234A): 2900 ± 100 nM
Binder: fluorescein-DNRDGNVYYF [fluorescent OMP peptide fluorescein-DNRDGNVYYF]
